From patent US20130171133A1 (IMPERIAL INNOVATIONS, published 2013) come the findings set out here.

The target of experiment [1] is HER2 (full length, from SK-OV-3 derived cell lysates) (human, UniProt P04626 23-1255). The experiment is described as follows: cell-based or functional assay.
The target in experiment [2] is T1, EphA2 (from cell lysates) (human, UniProt P29317 24-976).
T1 construct: whole, on cells; Tested by co-immunoprecipitation from cell lysates
The experiment is described as follows: co-IP and reciprocal co-IP, FIG. 17A.

Experiment [3] deals with T2, FGFR1 (full length, from cell lysates; endogenous or SK-OV-3 cells transiently transfected with FGFR1 cDNA) (human, UniProt P11362 22-822).
T2 construct: whole, on cells; Tested from detergent cell lysates (co-IP, GST pull-down); also called fibroblast growth factor receptor 1
T2 sequence (P11362 22-822): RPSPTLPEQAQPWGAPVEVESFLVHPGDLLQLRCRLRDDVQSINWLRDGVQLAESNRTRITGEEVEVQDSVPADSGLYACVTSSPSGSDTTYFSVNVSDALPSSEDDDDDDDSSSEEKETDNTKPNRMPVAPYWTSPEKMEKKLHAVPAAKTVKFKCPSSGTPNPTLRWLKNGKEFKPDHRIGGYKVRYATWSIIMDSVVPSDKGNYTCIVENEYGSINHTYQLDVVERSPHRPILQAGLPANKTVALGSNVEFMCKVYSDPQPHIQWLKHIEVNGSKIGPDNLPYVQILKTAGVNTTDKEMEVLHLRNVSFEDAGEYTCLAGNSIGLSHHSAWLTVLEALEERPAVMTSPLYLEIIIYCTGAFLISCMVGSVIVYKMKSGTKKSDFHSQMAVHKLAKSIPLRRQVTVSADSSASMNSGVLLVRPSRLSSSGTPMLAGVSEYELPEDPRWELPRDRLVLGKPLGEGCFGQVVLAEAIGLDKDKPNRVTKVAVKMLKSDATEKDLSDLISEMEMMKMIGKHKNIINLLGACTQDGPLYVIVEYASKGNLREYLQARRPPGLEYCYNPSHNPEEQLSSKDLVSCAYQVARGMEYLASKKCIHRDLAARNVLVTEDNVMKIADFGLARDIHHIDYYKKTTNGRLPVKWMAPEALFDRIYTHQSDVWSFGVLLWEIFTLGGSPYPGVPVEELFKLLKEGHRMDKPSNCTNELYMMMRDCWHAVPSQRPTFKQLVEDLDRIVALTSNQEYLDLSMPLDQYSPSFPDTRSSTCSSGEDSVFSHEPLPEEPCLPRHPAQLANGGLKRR
The experiment is described as follows: co-IP with OPCML Ab, immunoblot with anti-FGFR1 ECD Ab, FIG. 2A(ii). The procedure:
Cell layers were washed in PBS and incubated for 30 minutes in lysis buffer (1% TritonX-100, 10 mM Tris pH8.0, 150 mM NaCl, 2.5 mM MgCl₂, 5 mM EGTA, 1 mM Na₃VO₄, 50 mM NaF and […] (Roche). Cell Lysates were then cleared by centrifugation at 13,000 rpm for 20 minutes at 4° C. and aliquots containing equal amounts of protein were incubated with the appropriate antibody before addition of secondary antibody conjugated to sepharose resin. Beads were then washed 3× with lysis buffer and eluted by heating for 5 minutes in […] of SDS sample buffer.
(In general: A western blot detects proteins with antibodies after separation by electrophoresis.)

B1: OPCML (opioid binding protein cell adhesion molecule), human, expressed in cells (stably transfected SK-OV-3 lines BKS2.1 and SKOBS-3.5) (other)
chain: GVPVRSGDATFPKAMDNVTVRQGESATLRCTIDDRVTRVAWLNRSTILYAGNDKWSIDPRVIILVNTPTQYSIMIQNVDVYDEGPYTCSVQTDNHPKTSRVHLIVQVPPQIMNISSDITVNEGSSVTLLCLAIGRPEPTVTWRHLSVKEGQGFVSEDEYLEISDIKRDQSGEYECSALNDVAAPDVRKVKITVNYPPYISKAKNTGVSVGQKGILSCEASAVPMAEFQWFKEETRLATGLDGMRIENKGRMSTLTFFNVSEKDYGNYTCVATNKLGNTNASITLYGPGAVIDGVN
modifications: GPI anchor at N322; N-linked glycosylation
notes: Full OPCML cDNA in pcDNA3.1zeo, expressed in SK-OV-3 derived lines; immunoprecipitated from Triton X-100 cell lysates; also called OBCAM; OPCML polypeptide
Turning to B1, the “fold decrease in effective concentration of lapatinib required to abolish the EGF induced phospho-ERK signal, BKS2.1 against SKOBS-V1.2” value in experiment [1] is 10 fold. Also, the binding result in experiment [2] and in experiment [3] was “binds” throughout.
